Measured values: patent publication US20020044944A1

Tests used:
human Fas ligand (human) = human Fas ligand (human) (UniProt P48023); assay: cell-based or functional assay
mouse Fas ligand (mouse) = mouse Fas ligand (mouse) (UniProt P41047); assay: cell-based or functional assay
Sequence of UniProt P41047 (P41047 whole entry): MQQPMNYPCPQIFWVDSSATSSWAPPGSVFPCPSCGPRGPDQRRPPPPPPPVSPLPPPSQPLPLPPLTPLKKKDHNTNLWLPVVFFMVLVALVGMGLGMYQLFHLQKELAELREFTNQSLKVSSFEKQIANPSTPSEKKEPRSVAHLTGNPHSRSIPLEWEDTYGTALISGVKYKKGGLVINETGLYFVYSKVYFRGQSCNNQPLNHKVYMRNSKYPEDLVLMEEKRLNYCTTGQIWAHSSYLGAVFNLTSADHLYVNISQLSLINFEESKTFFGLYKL

Sequence of UniProt P48023 (P48023 whole entry): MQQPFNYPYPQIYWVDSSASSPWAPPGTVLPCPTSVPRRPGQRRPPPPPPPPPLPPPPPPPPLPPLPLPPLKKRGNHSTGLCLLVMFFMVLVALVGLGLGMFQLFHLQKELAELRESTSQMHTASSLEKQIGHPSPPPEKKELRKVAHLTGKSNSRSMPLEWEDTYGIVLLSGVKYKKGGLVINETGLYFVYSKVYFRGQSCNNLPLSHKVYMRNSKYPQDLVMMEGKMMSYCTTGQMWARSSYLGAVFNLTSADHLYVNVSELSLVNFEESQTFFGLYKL

Binder | specific cytotoxicity inhibition activity (51Cr release; 1A12 effector cells, WC8 target cells; FIG. 11) (times higher than hFas-Fc) (human Fas ligand (human)) | specific cytotoxicity inhibition activity (51Cr release; FLm14 effector cells, W4 target cells; FIG. 12) (times higher than hFas-Fc) (mouse Fas ligand (mouse)) | cytotoxicity inhibition activity by the assay described in Inventive Example 8 (human Fas ligand (human); scale: times stronger than the lower molecular weight fraction)
shFas(nd29)-hinge (receptor) TQNLEGLHHDGQFCHKPCPPGERKARDCTVNGDEPDCVPCQEGKEYTDKAHFSSKCRRCRLCDEGHGLEVEINCTRTQNTKCRCKPNFFCNSTVCEHCDPCTKCEHGIIKECTLTSNTKCKEEGSRSNEPKSCDKTHTCPPCP | 3 to 10 | 3 to 10 | 
shFas(nd29)-hinge, higher molecular weight gel filtration fraction (fractions 1 and 2, seemed to correspond to a dimer) (receptor) TQNLEGLHHDGQFCHKPCPPGERKARDCTVNGDEPDCVPCQEGKEYTDKAHFSSKCRRCRLCDEGHGLEVEINCTRTQNTKCRCKPNFFCNSTVCEHCDPCTKCEHGIIKECTLTSNTKCKEEGSRSNEPKSCDKTHTCPPCP |  |  | > 50
